Where a chain is given by its changes, count along the chain named.
These binders were tested against LIMK2, P53671 (assay: holdup assay). Settings: plain residues with an end cap or a label only (N-terminal biotin on a linker: ado-ado).
Sequence of LIMK2, P53671 (P53671 143-248): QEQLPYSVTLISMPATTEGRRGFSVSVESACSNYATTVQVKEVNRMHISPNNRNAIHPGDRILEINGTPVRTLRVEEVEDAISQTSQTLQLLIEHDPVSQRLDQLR
Design: key: below the threshold = too weak to quantify, mostly under pKd 3.1 to 4
With PEKVSNTTVV [IGSF5, Q9NSI5] the pKd was “below the threshold”. For EAVTVESTSL [SLC22A11, Q9NSA0], the pKd was “below the threshold”.

Each binder was assayed against MAGI2_6, Q86UL8 (assay: holdup assay). Settings: plain residues with an end cap or a label only (N-terminal biotin on a linker: ado-ado).
Sequence of MAGI2_6, Q86UL8 (Q86UL8 1141-1229): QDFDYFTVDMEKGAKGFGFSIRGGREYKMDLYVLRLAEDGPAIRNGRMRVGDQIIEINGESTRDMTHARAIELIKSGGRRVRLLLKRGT
Design: key: below the threshold = too weak to quantify, mostly under pKd 3.1 to 4
For PEKVSNTTVV [IGSF5, Q9NSI5], the pKd was “below the threshold”. EAVTVESTSL [SLC22A11, Q9NSA0] gave a pKd of 4.2.

What follows are binders tested against FRMPD3, Q5JV73 (assay: holdup assay). Settings: plain residues with an end cap or a label only (N-terminal biotin on a linker: ado-ado).
Sequence of FRMPD3, Q5JV73 (Q5JV73 12-100): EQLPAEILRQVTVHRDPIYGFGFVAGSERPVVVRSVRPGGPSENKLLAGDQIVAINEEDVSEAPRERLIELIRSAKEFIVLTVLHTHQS
Design: key: below the threshold = too weak to quantify, mostly under pKd 3.1 to 4
PEKVSNTTVV [IGSF5, Q9NSI5] was tested, and the pKd was “below the threshold”. In the case of EAVTVESTSL [SLC22A11, Q9NSA0], the pKd is reported as “below the threshold”.

What follows are binders tested against T1, TX1BP3, O14907 (assay: holdup assay). Settings: plain residues with an end cap or a label only (N-terminal biotin on a linker: ado-ado).
T1 sequence (O14907 10-122, limits assumed, looked up): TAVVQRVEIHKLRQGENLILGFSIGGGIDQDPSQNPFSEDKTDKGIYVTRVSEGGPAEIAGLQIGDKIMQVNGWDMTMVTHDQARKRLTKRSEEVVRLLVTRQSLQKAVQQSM
Design: key: below the threshold = too weak to quantify, mostly under pKd 3.1 to 4
PEKVSNTTVV [IGSF5, Q9NSI5] was tested, and the pKd was “below the threshold”. In the case of EAVTVESTSL [SLC22A11, Q9NSA0], the pKd is reported as 4.25.

These binders were tested against T2, DLG3_2, Q92796 (assay: holdup assay). Settings: plain residues with an end cap or a label only (N-terminal biotin on a linker: ado-ado).
T2 sequence (Q92796 221-321, limits assumed, looked up): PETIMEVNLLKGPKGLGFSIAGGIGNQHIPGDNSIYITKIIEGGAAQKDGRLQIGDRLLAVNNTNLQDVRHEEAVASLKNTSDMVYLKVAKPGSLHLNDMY
Design: key: below the threshold = too weak to quantify, mostly under pKd 3.1 to 4
PEKVSNTTVV [IGSF5, Q9NSI5] showed a pKd of 4.73. For EAVTVESTSL [SLC22A11, Q9NSA0], the pKd was “below the threshold”.

The binders below were run against Inadl_10, Q8NI35 (assay: holdup assay). Settings: plain residues with an end cap or a label only (N-terminal biotin on a linker: ado-ado).
Sequence of Inadl_10, Q8NI35 (Q8NI35 1673-1763): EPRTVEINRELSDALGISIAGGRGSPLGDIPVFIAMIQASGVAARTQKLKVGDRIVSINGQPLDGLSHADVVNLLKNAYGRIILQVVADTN
Design: key: below the threshold = too weak to quantify, mostly under pKd 3.1 to 4
In the case of PEKVSNTTVV [IGSF5, Q9NSI5], the pKd is reported as “below the threshold”. With EAVTVESTSL [SLC22A11, Q9NSA0] the pKd was “below the threshold”.

What follows are binders tested against T3, APBA2_2, Q99767 (assay: holdup assay). Settings: plain residues with an end cap or a label only (N-terminal biotin on a linker: ado-ado).
T3 sequence (Q99767 654-744, limits assumed, looked up): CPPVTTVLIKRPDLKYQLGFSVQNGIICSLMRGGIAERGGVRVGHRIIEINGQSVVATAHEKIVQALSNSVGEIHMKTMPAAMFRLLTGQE
Design: key: below the threshold = too weak to quantify, mostly under pKd 3.1 to 4
PEKVSNTTVV [IGSF5, Q9NSI5] was tested, and the pKd was “below the threshold”. In the case of EAVTVESTSL [SLC22A11, Q9NSA0], the pKd is reported as “below the threshold”.

The binders below were run against T4, DLG3_1, Q92796 (assay: holdup assay). Settings: plain residues with an end cap or a label only (N-terminal biotin on a linker: ado-ado).
T4 sequence (Q92796 125-227, limits assumed, looked up): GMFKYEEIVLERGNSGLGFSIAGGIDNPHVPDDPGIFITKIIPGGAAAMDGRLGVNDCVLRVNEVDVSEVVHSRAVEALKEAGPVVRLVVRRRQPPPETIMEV
Design: key: below the threshold = too weak to quantify, mostly under pKd 3.1 to 4
PEKVSNTTVV [IGSF5, Q9NSI5] was tested, and the pKd was 3.83. For EAVTVESTSL [SLC22A11, Q9NSA0], the pKd was “below the threshold”.

These binders were tested against Inadl_9, Q8NI35 (assay: holdup assay). Settings: plain residues with an end cap or a label only (N-terminal biotin on a linker: ado-ado).
Sequence of Inadl_9, Q8NI35 (Q8NI35 1530-1615): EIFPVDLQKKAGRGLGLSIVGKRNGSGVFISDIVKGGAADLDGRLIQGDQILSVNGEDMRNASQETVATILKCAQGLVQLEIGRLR
Design: key: below the threshold = too weak to quantify, mostly under pKd 3.1 to 4
For PEKVSNTTVV [IGSF5, Q9NSI5], the pKd was “below the threshold”. With EAVTVESTSL [SLC22A11, Q9NSA0] the pKd was “below the threshold”.

These binders were tested against ARHGEF12, Q9NZN5-2 (assay: holdup assay). Settings: plain residues with an end cap or a label only (N-terminal biotin on a linker: ado-ado).
Sequence of ARHGEF12, Q9NZN5-2 (Q9NZN5 other isoform, or with tags, fused parts or gaps): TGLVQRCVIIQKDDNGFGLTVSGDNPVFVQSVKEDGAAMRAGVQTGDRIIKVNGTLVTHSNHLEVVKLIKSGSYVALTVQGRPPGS
Design: key: below the threshold = too weak to quantify, mostly under pKd 3.1 to 4
With PEKVSNTTVV [IGSF5, Q9NSI5] the pKd was 4.21. In the case of EAVTVESTSL [SLC22A11, Q9NSA0], the pKd is reported as 5.17.

Each binder was assayed against HTRA2, O43464 (assay: holdup assay). Settings: plain residues with an end cap or a label only (N-terminal biotin on a linker: ado-ado).
Sequence of HTRA2, O43464 (O43464 355-458): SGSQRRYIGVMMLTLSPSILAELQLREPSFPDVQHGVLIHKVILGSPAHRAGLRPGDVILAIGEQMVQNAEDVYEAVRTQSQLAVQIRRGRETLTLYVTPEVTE
Design: key: below the threshold = too weak to quantify, mostly under pKd 3.1 to 4
In the case of PEKVSNTTVV [IGSF5, Q9NSI5], the pKd is reported as “below the threshold”. For EAVTVESTSL [SLC22A11, Q9NSA0], the pKd was “below the threshold”.

Each binder was assayed against T5, RAPGEF6, Q8TEU7 (assay: holdup assay). Settings: plain residues with an end cap or a label only (N-terminal biotin on a linker: ado-ado).
T5 sequence (Q8TEU7 525-625, limits assumed, looked up): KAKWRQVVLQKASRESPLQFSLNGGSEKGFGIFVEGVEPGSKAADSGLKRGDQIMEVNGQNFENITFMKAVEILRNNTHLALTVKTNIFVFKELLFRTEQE
Design: key: below the threshold = too weak to quantify, mostly under pKd 3.1 to 4
With PEKVSNTTVV [IGSF5, Q9NSI5] the pKd was “below the threshold”. With EAVTVESTSL [SLC22A11, Q9NSA0] the pKd was “below the threshold”.

These binders were tested against MAGI3_2, Q5TCQ9 (assay: holdup assay). Settings: plain residues with an end cap or a label only (N-terminal biotin on a linker: ado-ado).
Sequence of MAGI3_2, Q5TCQ9 (Q5TCQ9 398-503): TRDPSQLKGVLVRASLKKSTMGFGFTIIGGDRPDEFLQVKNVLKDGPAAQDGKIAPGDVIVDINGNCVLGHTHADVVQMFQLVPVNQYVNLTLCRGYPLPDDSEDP
Design: key: below the threshold = too weak to quantify, mostly under pKd 3.1 to 4
PEKVSNTTVV [IGSF5, Q9NSI5] was tested, and the pKd was 4.44. In the case of EAVTVESTSL [SLC22A11, Q9NSA0], the pKd is reported as “below the threshold”.

The binders below were run against LNX1_1, Q8TBB1 (assay: holdup assay). Settings: plain residues with an end cap or a label only (N-terminal biotin on a linker: ado-ado).
Sequence of LNX1_1, Q8TBB1 (Q8TBB1 261-371): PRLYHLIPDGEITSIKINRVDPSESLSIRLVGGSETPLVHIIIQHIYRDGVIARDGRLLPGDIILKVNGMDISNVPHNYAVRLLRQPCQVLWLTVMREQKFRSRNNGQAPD
Design: key: below the threshold = too weak to quantify, mostly under pKd 3.1 to 4
For PEKVSNTTVV [IGSF5, Q9NSI5], the pKd was 3.67. For EAVTVESTSL [SLC22A11, Q9NSA0], the pKd was 3.5.

What follows are binders tested against T6, APBA2_1, Q99767 (assay: holdup assay). Settings: plain residues with an end cap or a label only (N-terminal biotin on a linker: ado-ado).
T6 sequence (Q99767 563-664, limits assumed, looked up): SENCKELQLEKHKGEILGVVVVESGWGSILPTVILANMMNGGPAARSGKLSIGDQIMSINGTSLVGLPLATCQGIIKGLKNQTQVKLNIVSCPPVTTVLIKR
Design: key: below the threshold = too weak to quantify, mostly under pKd 3.1 to 4
In the case of PEKVSNTTVV [IGSF5, Q9NSI5], the pKd is reported as “below the threshold”. Work on EAVTVESTSL [SLC22A11, Q9NSA0] yielded a pKd of 3.54.

What follows are binders tested against T7, PCLO, Q9Y6V0 (assay: holdup assay). Settings: plain residues with an end cap or a label only (N-terminal biotin on a linker: ado-ado).
T7 sequence (Q9Y6V0 4491-4600, limits assumed, looked up): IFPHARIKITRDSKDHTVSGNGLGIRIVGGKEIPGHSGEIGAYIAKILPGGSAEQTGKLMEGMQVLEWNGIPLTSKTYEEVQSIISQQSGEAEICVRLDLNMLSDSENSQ
Design: key: below the threshold = too weak to quantify, mostly under pKd 3.1 to 4
With PEKVSNTTVV [IGSF5, Q9NSI5] the pKd was “below the threshold”. EAVTVESTSL [SLC22A11, Q9NSA0] was tested, and the pKd was “below the threshold”.

What follows are binders tested against GRIP2_7, Q9C0E4 (assay: holdup assay). Settings: plain residues with an end cap or a label only (N-terminal biotin on a linker: ado-ado).
Sequence of GRIP2_7, Q9C0E4 (Q9C0E4 934-1023): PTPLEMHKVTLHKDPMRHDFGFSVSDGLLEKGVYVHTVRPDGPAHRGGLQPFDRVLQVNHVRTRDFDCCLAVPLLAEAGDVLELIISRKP
Design: key: below the threshold = too weak to quantify, mostly under pKd 3.1 to 4
With PEKVSNTTVV [IGSF5, Q9NSI5] the pKd was “below the threshold”. EAVTVESTSL [SLC22A11, Q9NSA0] was tested, and the pKd was “below the threshold”.

The binders below were run against LNX1_2, Q8TBB1 (assay: holdup assay). Settings: plain residues with an end cap or a label only (N-terminal biotin on a linker: ado-ado).
Sequence of LNX1_2, Q8TBB1 (Q8TBB1 371-470): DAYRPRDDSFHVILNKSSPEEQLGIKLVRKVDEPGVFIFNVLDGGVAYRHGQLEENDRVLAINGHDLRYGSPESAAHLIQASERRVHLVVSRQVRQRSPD
Design: key: below the threshold = too weak to quantify, mostly under pKd 3.1 to 4
In the case of PEKVSNTTVV [IGSF5, Q9NSI5], the pKd is reported as 3.73. EAVTVESTSL [SLC22A11, Q9NSA0] was tested, and the pKd was “below the threshold”.

The binders below were run against T8, SNTG2, Q9NY99 (assay: holdup assay). Settings: plain residues with an end cap or a label only (N-terminal biotin on a linker: ado-ado).
T8 sequence (Q9NY99 68-166, limits assumed, looked up): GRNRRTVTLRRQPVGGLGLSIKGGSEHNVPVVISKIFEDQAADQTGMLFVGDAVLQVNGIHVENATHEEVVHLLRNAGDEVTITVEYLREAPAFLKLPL
Design: key: below the threshold = too weak to quantify, mostly under pKd 3.1 to 4
PEKVSNTTVV [IGSF5, Q9NSI5] showed a pKd of 3.76. EAVTVESTSL [SLC22A11, Q9NSA0] showed a pKd of 3.64.

These binders were tested against T9, APBA1_1, Q02410 (assay: holdup assay). Settings: plain residues with an end cap or a label only (N-terminal biotin on a linker: ado-ado).
T9 sequence (Q02410 651-752, limits assumed, looked up): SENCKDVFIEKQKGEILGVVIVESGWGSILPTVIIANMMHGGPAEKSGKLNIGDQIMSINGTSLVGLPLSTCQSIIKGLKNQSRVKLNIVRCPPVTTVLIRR
Design: key: below the threshold = too weak to quantify, mostly under pKd 3.1 to 4
With PEKVSNTTVV [IGSF5, Q9NSI5] the pKd was “below the threshold”. In the case of EAVTVESTSL [SLC22A11, Q9NSA0], the pKd is reported as “below the threshold”.

These binders were tested against GRASP, Q7Z6J2 (assay: holdup assay). Settings: plain residues with an end cap or a label only (N-terminal biotin on a linker: ado-ado).
Sequence of GRASP, Q7Z6J2 (Q7Z6J2 96-193): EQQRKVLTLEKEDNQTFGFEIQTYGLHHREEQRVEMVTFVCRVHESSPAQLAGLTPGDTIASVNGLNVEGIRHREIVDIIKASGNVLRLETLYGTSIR
Design: key: below the threshold = too weak to quantify, mostly under pKd 3.1 to 4
PEKVSNTTVV [IGSF5, Q9NSI5] showed a pKd of 4.38. EAVTVESTSL [SLC22A11, Q9NSA0] showed a pKd of 5.36.

Each binder was assayed against T10, LIN7A, O14910 (assay: holdup assay). Settings: plain residues with an end cap or a label only (N-terminal biotin on a linker: ado-ado).
T10 sequence (O14910 103-200, limits assumed, looked up): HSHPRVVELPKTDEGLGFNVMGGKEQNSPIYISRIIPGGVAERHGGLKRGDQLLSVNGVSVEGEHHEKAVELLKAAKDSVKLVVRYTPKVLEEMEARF
Design: key: below the threshold = too weak to quantify, mostly under pKd 3.1 to 4
For PEKVSNTTVV [IGSF5, Q9NSI5], the pKd was “below the threshold”. For EAVTVESTSL [SLC22A11, Q9NSA0], the pKd was “below the threshold”.

Each binder was assayed against T11, LIN7C, Q9NUP9 (assay: holdup assay). Settings: plain residues with an end cap or a label only (N-terminal biotin on a linker: ado-ado).
T11 sequence (Q9NUP9 88-185, limits assumed, looked up): T10 sequence (O14910 103-200, limits assumed, looked up) with D13E, V20I, V40I, E42D, K77Q, D78G, S79K, A96S
Design: key: below the threshold = too weak to quantify, mostly under pKd 3.1 to 4
In the case of PEKVSNTTVV [IGSF5, Q9NSI5], the pKd is reported as “below the threshold”. In the case of EAVTVESTSL [SLC22A11, Q9NSA0], the pKd is reported as “below the threshold”.

These binders were tested against T12, PARD3B_1, Q8TEW8 (assay: holdup assay). Settings: plain residues with an end cap or a label only (N-terminal biotin on a linker: ado-ado).
T12 sequence (Q8TEW8 196-299, limits assumed, looked up): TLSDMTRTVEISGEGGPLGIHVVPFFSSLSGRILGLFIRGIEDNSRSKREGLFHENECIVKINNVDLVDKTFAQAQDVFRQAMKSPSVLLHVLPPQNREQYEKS
Design: key: below the threshold = too weak to quantify, mostly under pKd 3.1 to 4
PEKVSNTTVV [IGSF5, Q9NSI5] was tested, and the pKd was “below the threshold”. EAVTVESTSL [SLC22A11, Q9NSA0] gave a pKd of 4.43.

These binders were tested against DLG1_3, Q12959 (assay: holdup assay). Settings: plain residues with an end cap or a label only (N-terminal biotin on a linker: ado-ado).
Sequence of DLG1_3, Q12959 (Q12959 457-571): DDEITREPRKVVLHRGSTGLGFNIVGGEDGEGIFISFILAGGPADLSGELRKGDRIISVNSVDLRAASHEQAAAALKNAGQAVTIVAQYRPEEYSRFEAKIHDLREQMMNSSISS
Design: key: below the threshold = too weak to quantify, mostly under pKd 3.1 to 4
With PEKVSNTTVV [IGSF5, Q9NSI5] the pKd was “below the threshold”. With EAVTVESTSL [SLC22A11, Q9NSA0] the pKd was “below the threshold”.

From publication PMC9482650, “Quantitative fragmentomics allow affinity mapping of interactomes” (Nature Communications, 2022)
